Experiment [1] deals with c-Met/HGF receptor expressed on the lung tumor cell line A549 (UniProt P08581). The experiment can be described thus: cell-based or functional assay.
Experiment [2] deals with c-Met/HGF receptor of rat liver plasma membrane (rat) (UniProt P97523). Nature of the experiment: displacement of 60 pM 125I-HGF from rat liver plasma membrane.
Experiment [3] has the same target. The experiment can be described thus: Scatchard analysis, 125I-HGF on rat liver plasma membrane.
Experiment [4] has as its target T1, c-Met/HGF receptor of rat liver plasma membrane (rat, UniProt P97523 25-1382).
T1 construct: whole, on cells; The assay used a plasma membrane preparation, not a purified receptor; also called cell surface receptor; HGF receptors
Nature of the experiment: displacement of 60 pM 125I-HGF from rat liver plasma membrane. The source says:
(§1) Using the HGF/NK4 prepared in Example 1, its binding affinity for the cell surface receptor was investigated. As a control experiment, the binding affinity of HGF for the cell surface receptor was also investigated. In this connection, the HGF/NK4 and HGF were radio-labeled (¹²⁵I-HGF/NK4 and ¹²⁵I-HGF) by the chloramine-T method, and as the cell surface receptor sample, the plasma membrane prepared from the rat liver was used.
Then, to investigate whether HGF/NK4 is a competitive antagonist of HGF, the liver plasma membrane (50 μg) was incubated in the presence of ¹²⁵I-HGF alone (60 pM) or a mixture of ¹²⁵I-HGF and a varying amount of unlabeled HGF or unlabeled HGF/NK4.

Experiment [5] concerns the target T1, c-Met/HGF receptor of rat liver plasma …. The experiment can be described thus: Scatchard analysis, 125I-HGF/NK4 on rat liver plasma membrane.
Text: as §1

Chain of c-Met/HGF receptor expressed on the lung tumor cell line A549 (P08581 25-1390 limits assumed): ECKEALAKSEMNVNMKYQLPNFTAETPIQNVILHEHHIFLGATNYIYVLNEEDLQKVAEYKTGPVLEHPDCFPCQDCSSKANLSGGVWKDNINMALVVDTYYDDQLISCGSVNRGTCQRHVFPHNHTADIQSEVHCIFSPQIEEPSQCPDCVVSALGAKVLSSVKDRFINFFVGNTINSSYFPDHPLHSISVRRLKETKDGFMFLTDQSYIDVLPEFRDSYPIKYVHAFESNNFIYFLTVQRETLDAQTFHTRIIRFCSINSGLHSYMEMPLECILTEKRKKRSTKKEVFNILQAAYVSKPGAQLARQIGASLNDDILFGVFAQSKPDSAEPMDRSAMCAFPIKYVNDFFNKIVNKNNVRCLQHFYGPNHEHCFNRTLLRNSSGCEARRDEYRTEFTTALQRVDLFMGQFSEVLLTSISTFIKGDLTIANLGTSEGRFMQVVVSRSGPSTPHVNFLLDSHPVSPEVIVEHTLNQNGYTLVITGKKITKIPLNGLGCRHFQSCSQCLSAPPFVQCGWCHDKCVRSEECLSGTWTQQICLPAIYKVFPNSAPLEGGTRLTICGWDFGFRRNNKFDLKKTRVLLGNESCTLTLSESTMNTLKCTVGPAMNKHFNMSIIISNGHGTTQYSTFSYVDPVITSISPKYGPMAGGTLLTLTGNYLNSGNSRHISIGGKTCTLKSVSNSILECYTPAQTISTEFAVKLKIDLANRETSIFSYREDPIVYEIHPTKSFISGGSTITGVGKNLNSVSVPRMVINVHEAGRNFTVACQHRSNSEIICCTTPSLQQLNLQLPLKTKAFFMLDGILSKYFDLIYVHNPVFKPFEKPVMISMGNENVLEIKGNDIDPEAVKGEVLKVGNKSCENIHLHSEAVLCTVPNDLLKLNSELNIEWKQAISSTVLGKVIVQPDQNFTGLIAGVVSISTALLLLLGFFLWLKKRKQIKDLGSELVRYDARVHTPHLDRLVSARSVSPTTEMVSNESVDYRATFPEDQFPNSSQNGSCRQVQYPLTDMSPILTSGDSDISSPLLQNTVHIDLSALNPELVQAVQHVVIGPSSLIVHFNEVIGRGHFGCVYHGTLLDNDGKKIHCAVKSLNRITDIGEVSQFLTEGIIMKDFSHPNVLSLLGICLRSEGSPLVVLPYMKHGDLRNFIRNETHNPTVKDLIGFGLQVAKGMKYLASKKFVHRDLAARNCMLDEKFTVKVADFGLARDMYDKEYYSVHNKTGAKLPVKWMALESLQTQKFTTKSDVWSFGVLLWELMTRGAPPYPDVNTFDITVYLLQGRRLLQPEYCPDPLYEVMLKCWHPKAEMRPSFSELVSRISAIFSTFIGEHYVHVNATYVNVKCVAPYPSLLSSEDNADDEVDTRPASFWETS

A word on the IC50: it is the concentration needed to halve the response being measured. Low readings indicate greater potency in that assay, high ones weaker potency in that assay. The Kd is a measure of binding affinity in units of concentration. The molecule “recombinant human hepatocyte growth factor (HGF), heterodimer of alpha-chain and beta-chain (from UniProt P14210 32-494; P14210 495-728) (ligand)” gave a tyrosine phosphorylation of c-Met in A549 cells (immunoprecipitation with anti-c-Met antibody, Western blot with anti-phosphotyrosine antibody) in experiment [1] of 110 pM. This molecule yielded an IC50 in experiment [2] of 0.06 nM. In addition, the Kd in experiment [3] amounted to 0.0645 nM.

B1: HGF/NK4 (PyrGlu32-Val478 region of human HGF, obtained by elastase digestion of recombinant HGF) (ligand)
chain: ERKRRNTIHEFKKSAKTTLIKIDPALKIKTKKVNTADQCANRCTRNKGLPFTCKAFVFDKARKQCLWFPFNSMSSGVKKEFGHEFDLYENKDYIRNCIIGKGRSYKGTVSITKSGIKCQPWSSMIPHEHSFLPSSYRGKDLQENYCRNPRGEEGGPWCFTSNPEVRYEVCDIPQCSEVECMTCNGESYRGLMDHTESGKICQRWDHQTPHRHKFLPERYPDKGFDDNYCRNPDGQPRPWCYTLDPHTRWEYCAIKTCADNTMNDTDVPLETTECIQGQGEGYRGTVNTIWNGIPCQRWDSQYPHEHDMTPENFKCKDLRENYCRNPDGSESPWCFTTDPNIRVGYCSQIPNCDMSHGQDCYRGNGKNYMGNLSQTRSGLTCSMWDKNMEDLHRHIFWEPDASKLNENYCRNPDDDAHGPWCYTGNPLIPWDYCPISRCEGDTTPTIV
modifications: N-terminal residue is pyroglutamate (PyrGlu32 by prepro-HGF numbering; Xaa at position 1 of SEQ ID NO:1)
notes: also called unlabeled HGF/NK4
In experiment [4], B1 returned an IC50 of 0.6 nM. Moreover, the affinity in experiment [5], expressed as Kd, was 0.486 nM.
